These results are taken from paper PMC4260750.

The test addresses ADAM10 (endogenous, rat brain) (UniProt Q10743). Nature of the test: GST pull-down from rat brain homogenate. The following applies: reference: GST-SAP97wt, PKC-treated; sites T629.

As to “SAP97 (GST-SAP97 and YFP-SAP97 constructs) (from UniProt Q62696) GST-SAP97-T629A, PKC-treated”, the “binding against the reference” value is given as “weaker”.
